The target of assay [1] is T1, human soluble urokinase plasminogen activator receptor (suPAR) (human, UniProt Q03405 23-303, limits assumed).
T1 construct: also called hsuPAR; human suPAR
The assay can be described thus: dissociation rate (kdis) on human suPAR; method not stated.

The target in assay [2] is T2, mouse cell surface uPAR (muPAR) (mouse, UniProt P35456 24-298).
T2 construct: whole, on cells; also called mouse uPAR
T2 sequence (looked up): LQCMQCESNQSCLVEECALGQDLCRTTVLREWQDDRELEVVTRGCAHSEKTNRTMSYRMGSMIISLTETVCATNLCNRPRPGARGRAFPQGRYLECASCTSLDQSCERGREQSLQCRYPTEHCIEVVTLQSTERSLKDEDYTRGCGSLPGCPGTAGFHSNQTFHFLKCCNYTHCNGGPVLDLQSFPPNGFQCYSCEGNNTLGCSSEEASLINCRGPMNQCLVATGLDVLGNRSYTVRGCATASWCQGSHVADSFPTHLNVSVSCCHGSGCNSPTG
Briefly: flow cytometry on undifferentiated mouse podocytes, FITC secondary antibody. How it is done: Gene expression of mouse uPAR in undifferentiated mouse podocyte cells was undertaken using commercial gene specific qPCR probes for mouse and human uPAR and normalized to 18S housekeeping gene expression using manufacturers RT-qPCR protocol (Thermofisher). Separately, mouse podocytes were incubated with 100 μg/mL concentration of anti-hsuPAR and Proteintech positive control anti-mouse uPAR antibodies at 4° C. for 1 hr. After 2 cycles of wash to remove any unbound antibody, cells were incubated with 10 μg/mL of a goat-anti-human-FITC or goat-anti-mouse-FITC or goat-anti-rabbit-FITC conjugated secondary antibody for 1 hr at 4° C. After washing any unbound secondary antibody, cell suspensions for each sample was gated for single cells and population mean fluorescence intensity was recorded and analyzed on a Luminex Flowsight flow cytometer. Mean fluorescence intensity for test samples was plotted in GraphPad Prism software and compared to positive control sample data.

Assay [3] concerns the target T3, human suPAR (hsuPAR) recombinant protein (human, UniProt Q03405 23-303).
T3 construct: it is written here as the same molecule; also called recombinant hsuPAR
The assay can be described thus: BLI (Octet Red96E), WAb0014 immobilized on AHC sensor, hsuPAR as analyte. As for the experimental part: (§1) Analyte global association (kₐ) and disassociation […] rates were calculated using in-built functions to determine binding affinity (KD)

For assay [4], the target named is T4, cynomolgus suPAR (cynomolgus, UniProt Q9GK78 23-303, limits assumed).
T4 construct: also called Cynomolgus suPAR isoform protein; cynomolgus uPAR
T4 sequence (Q9GK78 23-303 limits assumed): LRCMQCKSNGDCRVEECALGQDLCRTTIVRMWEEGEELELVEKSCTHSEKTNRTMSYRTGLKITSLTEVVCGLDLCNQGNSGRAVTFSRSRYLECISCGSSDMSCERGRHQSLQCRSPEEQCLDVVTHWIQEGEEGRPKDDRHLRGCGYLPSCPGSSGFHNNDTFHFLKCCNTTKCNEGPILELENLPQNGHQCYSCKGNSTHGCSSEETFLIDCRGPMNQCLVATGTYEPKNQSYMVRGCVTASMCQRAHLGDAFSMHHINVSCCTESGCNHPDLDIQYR
Briefly: BLI (Octet Red 96E), antibody immobilized. The text has this:
Recombinantly expressed proteins for hsuPAR isoform 1-D2D3 fragment and hsuPAR-3 isoforms were custom generated in HEK or CHO cells and purified by Genscript from the known amino-acid sequence of hsuPAR-1 and hsuPAR-3 respectively. Cynomolgus suPAR isoform protein was commercially obtained from Creative Biomart.

In assay [5] the target is T5, cell surface human uPAR (huPAR) (human, UniProt Q03405 23-305).
T5 construct: whole, on cells; also called cell surface huPAR; cell surface uPAR
T5 sequence (Q03405 23-305): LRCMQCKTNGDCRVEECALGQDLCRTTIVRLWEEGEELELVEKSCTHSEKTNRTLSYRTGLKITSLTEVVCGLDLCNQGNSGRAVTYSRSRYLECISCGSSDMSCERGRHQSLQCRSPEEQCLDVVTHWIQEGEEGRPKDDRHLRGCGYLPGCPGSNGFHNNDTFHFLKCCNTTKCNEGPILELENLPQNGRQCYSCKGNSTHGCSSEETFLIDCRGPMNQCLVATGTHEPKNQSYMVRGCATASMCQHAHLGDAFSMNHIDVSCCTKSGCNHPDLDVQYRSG
The assay can be described thus: flow cytometry on human podocytes, FITC secondary antibody, MFI against concentration. As for the experimental part:
After 2 cycles of wash to remove any unbound antibody, cells were incubated with 10 μg/mL of a goat-anti-human-FITC conjugated secondary antibody for 1 hr at 4° C.

Assay [6] deals with T6, human neonatal FcRn receptor (hFcRn), biotinylated (human, UniProt P55899 24-297, biotinylated (site not stated)).
T6 construct: also called FcRn receptors; neonatal FcRn receptors
T6 sequence (P55899 24-297 limits assumed, form in doubt): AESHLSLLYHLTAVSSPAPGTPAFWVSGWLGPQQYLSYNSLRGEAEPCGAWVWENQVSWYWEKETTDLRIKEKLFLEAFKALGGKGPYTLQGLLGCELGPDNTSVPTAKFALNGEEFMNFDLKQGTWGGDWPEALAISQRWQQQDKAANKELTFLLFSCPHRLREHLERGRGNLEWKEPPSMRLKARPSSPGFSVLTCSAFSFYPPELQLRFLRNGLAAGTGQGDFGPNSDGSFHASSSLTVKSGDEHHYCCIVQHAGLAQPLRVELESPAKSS
The assay can be described thus: BLI (Octet Red96E), biotinylated hFcRn on SA sensor, WAb0014 as analyte, acidic conditions (pH 6). As for the experimental part: Biotinylated hFcRn protein was sourced from Acro Biosystems and immobilized on a SA biosensor. […] Binding affinity (KD, nM) was calculated from the response rate constants as described above.

In assay [7] the target is T3, human suPAR (hsuPAR) recombinant protein. Briefly: BLI (Octet Red96E), hsuPAR immobilized on streptavidin sensor, WAb0014 as analyte. As for the experimental part:
as §1

For assay [8], the target named is T7, Fc-gammaR1 receptor recombinant protein, biotinylated (Homo sapiens (Human), UniProt P12314 16-292, Biotinylated for capture on the sensor; the site of biotin is not stated in the passages seen.).
T7 construct: also called Fc-gammaR1 isoform
T7 sequence (P12314 16-292 limits assumed, form in doubt): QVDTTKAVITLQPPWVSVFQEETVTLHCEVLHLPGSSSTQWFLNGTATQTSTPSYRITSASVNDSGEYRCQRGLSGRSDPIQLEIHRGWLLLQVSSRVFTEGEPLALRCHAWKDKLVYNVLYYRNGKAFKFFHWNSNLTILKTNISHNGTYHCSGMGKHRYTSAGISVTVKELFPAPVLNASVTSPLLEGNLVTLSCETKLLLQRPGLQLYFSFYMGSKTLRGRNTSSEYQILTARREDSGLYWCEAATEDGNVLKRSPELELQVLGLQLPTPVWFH
Briefly: BLI (Octet Red96E), biotinylated Fc-gammaR1 on streptavidin sensor, antibody as analyte. How it is done:
Antibody induced immune response is known to be mediated by interaction with Fc-gamma receptors. Immunologic response potential of WAL0921-ΔK was assessed biophysically on an Octet Red96E platform by measuring the binding affinity to Fc-gammaR1, high affinity Fc-gammaR2a and high affinity Fc-gammaR3a receptor recombinant proteins.
Biotinylated Fc-gamma proteins were procured from Acro Biosystems and immobilized on a streptavidin biosensor. Increasing concentrations of analyte WAL0921-ΔK were then applied, and responses measured. Binding affinity (KD, nM) was calculated from the response rate constants as described above.

Changes are numbered by the printed parent chain. Numbers in names are those of the source. Where only a bound is given, the exact number is not on record here.

For ten molecules, koff, binding result and Kd results are on record in US20250215104A1 (WALDEN BIOSCIENCES, published 2025).

T3 sequence (Q03405 23-303): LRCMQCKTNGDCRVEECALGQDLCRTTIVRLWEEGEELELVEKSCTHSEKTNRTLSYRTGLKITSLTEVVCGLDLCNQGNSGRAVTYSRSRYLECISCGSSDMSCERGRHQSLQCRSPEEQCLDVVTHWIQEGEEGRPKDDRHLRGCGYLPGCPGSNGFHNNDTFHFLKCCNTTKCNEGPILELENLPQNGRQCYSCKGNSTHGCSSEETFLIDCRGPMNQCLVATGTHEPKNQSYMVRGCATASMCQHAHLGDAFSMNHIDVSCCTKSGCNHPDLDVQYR
T1 sequence (Q03405 23-303 limits assumed): as the sequence (Q03405 23-303) above

B1: WAb0016 (antibody, V domains shown)
VH: QVQLVQSGAEVKKPGASVKVSCKASGYTFTNYYIHWVRQAPGQGLEWMGWISPSSGGTKYAQKFQGRVTMTRDTSTSTVYMELSSLRSEDTAVYYCARGYDVDWFVYWGQGTLVTVSS
VL: DIQMTQSPSSLSASVGDRVTITCSARSSVSYMYWYQQKPGKAPKLLIYRTSNLASGVPSRFSGSGSGTDFTLTISSLQPEDFATYYCQQYHSYPPTFGGGTKVEIK
notes: constant regions not tied to this antibody; also called WAb CD0016
As for B1, the koff in assay [1] is 0.000213 s⁻¹.

B2: WAb0017 (antibody, V domains shown)
VH: B1 VH with T30S, N31A, I34M, S52D, P53H, S54E, S55N, G57N, K59I, A61D
VL: B1 VL with S24R, S27Q
notes: constant regions not tied to this antibody; also called WAb CD0017
Consider B2, for which, in assay [1], the dissociation rate constant (koff) was 3.63e-07 s⁻¹.

B3: WAb0020 (antibody, V domains shown)
VH: B1 VH with N31S, Y32H, I34V, S52D, P53H, S54E, S55N, G57N, K59I, A61D
VL: B1 VL
notes: constant regions not tied to this antibody; also called WAb CD0020
As to B3, in assay [1], the koff came out at 3.42e-07 s⁻¹.

B4: WAb0008 (antibody, IgG2a, V domains shown)
VH: QVQLVQSGAEVKKPGASVKVSCKASGYTFTSHYIQWVRQAPGQGLEWMGWIDHENGNTIYDQKFQGRVTMTRDTSTSTVYMELSSLRSEDTAVYYCARGTDVDWFVYWGQGTLVTVSS
VL: B1 VL
notes: The listing names these entries 'WAb CD0008'; WAb0006 VH + mIgG2a Fc with L235A and L236A; WAb0006 VL + mouse kappa constant; also called WAb008; mouse IgG2a version of WAb0006
B4: the binding result in assay [2] was “no binding (tested: 100 µg/mL)”.

B5: WAb0019 (antibody, V domains shown)
VH: B4 VH with T30S, H32Y, I34M, Q35H, D61A, T100Y
VL: B1 VL
notes: constant regions not tied to this antibody; also called WAb CD0019
For the molecule B5, the koff in assay [1] worked out at 3.43e-07 s⁻¹.

B6: WAb0018 (antibody, V domains shown)
VH: B4 VH with S31N, H32Y, I34M, Q35H, T100Y
VL: B1 VL with R26S, V29I
notes: constant regions not tied to this antibody; also called WAb CD0018
The molecule B6 displayed an off-rate (koff) in assay [1] of 2.6e-07 s⁻¹.

B7: WAb0014 (antibody)
heavy: not shown
light: DIQMTQSPSSLSASVGDRVTITCSARQSVSYMYWYQQKPGKAPKLLIYRTSNLASGVPSRFSGSGSGTDFTLTISSLQPEDFATYYCQQYHSYPPTFGGGTKVEIKRTVAAPSVFIFPPSDEQLKSGTASVVCLLNNFYPREAKVQWKVDNALQSGNSQESVTEQDSKDSTYSLSSTLTLSKADYEKHKVYACEVTHQGLSSPVTKSFNRGEC
notes: also called original candidate; WAL0921 without P330G
B7: the koff in assay [1] turned out to be 2.57e-07 s⁻¹.

B8: WAb0014 (antibody, human IgG1)
heavy: not shown
light: B7 light
notes: human kappa; also called initial anti-suPAR antibody; original candidate; copies: 2 + 2
As to B8, the binding result in assay [2] is given as “no binding (tested: 100 µg/mL)”. Further, the Kd in assay [3] is 0.69 to 2 nM; in assay [4], 10.5 nM; in assay [5], 1 to 3 nM; in assay [6], 0.025 nM; in assay [7] it was less than 0.1 nM.

B9: WAL0921-ΔK (antibody)
heavy: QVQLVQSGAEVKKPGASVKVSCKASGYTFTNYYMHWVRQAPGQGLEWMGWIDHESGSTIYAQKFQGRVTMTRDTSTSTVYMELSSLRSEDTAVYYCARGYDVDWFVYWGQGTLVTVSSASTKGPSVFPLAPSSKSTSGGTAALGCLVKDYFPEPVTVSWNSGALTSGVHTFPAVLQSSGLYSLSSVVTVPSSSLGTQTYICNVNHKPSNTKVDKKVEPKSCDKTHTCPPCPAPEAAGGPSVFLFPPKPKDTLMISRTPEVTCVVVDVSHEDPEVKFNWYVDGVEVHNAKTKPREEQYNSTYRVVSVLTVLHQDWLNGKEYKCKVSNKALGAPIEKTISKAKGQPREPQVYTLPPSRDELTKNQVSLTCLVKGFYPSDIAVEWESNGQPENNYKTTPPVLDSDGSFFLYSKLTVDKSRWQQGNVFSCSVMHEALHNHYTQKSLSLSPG
light: B7 light
notes: Same as WAL0921 but without the C-terminal lysine of the heavy chain (K448 of the whole heavy chain); also called WAL0921 without K448
Take B9: the equilibrium dissociation constant (Kd) in assay [8] came out at 1750 nM.

B10: WAb0006 (antibody, human IgG1, V domains shown)
VH: B4 VH
VL: DIQMTQSPSSLSASVGDRVTITCSARSSVSYMYWYQQKPGKAPKLLIYRTSNLASGVPSRFSGSGSGTDFTLTISSLQPEDFATYYCQQYHSYPPTFGGGTKVEIKR
notes: The listing names these entries 'WAb CD0006'; Fc region identical to WAb0014 (human IgG1, L235A, L236A); human kappa; also called original backup candidate
With B10, in assay [2], the binding result was “no binding (tested: 100 µg/mL)”.
